Measured values reported in patent publication US20170101472A1 (Regeneron, published 2017).

Assays:
[1] = molecular target: T1, human LAG3 chimera (extracellular domain of human LAG3 and trans-membrane/cytoplasmic domain of human CD300a) … (human, UniProt P18627 23-450; Q9UGN4 181-299, limits assumed); assay: cell-based or functional assay
T1 sequence (looked up): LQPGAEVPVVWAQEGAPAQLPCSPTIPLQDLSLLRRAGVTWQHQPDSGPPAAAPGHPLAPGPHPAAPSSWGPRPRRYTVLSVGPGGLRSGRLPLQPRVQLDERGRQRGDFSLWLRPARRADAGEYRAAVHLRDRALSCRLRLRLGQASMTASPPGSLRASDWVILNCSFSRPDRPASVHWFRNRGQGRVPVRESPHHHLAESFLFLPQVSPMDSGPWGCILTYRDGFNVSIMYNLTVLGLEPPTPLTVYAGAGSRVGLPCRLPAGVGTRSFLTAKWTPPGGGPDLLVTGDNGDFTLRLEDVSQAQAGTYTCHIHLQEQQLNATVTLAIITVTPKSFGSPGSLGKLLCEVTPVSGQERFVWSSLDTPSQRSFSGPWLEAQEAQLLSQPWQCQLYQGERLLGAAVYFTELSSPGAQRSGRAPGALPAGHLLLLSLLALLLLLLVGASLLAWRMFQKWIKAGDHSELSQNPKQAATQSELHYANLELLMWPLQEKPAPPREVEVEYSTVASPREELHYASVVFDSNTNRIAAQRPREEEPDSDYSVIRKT

[2] = molecular target: T2, human LAG3 expressed on HEK293 cells (human, UniProt P18627 23-525); assay: cell adherence assay, blocks A20 (mouse MHCII) cells on HEK293-hLAG3
T2 construct: also called hLAG3; HEK293/hLAG3
T2 sequence: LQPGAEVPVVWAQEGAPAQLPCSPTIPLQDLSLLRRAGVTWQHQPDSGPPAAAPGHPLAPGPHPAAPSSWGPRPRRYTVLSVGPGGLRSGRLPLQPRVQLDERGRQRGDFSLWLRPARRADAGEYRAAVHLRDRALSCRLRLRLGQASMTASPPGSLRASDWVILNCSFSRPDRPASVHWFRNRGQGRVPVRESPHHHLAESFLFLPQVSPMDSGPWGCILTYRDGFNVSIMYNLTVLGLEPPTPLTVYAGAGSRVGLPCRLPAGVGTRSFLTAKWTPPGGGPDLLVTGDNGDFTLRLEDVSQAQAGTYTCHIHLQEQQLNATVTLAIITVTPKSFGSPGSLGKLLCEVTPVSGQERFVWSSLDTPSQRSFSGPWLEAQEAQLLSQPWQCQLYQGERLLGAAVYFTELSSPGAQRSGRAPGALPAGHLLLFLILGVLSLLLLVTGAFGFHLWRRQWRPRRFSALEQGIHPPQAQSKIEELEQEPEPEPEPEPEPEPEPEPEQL
Protocol: Cells were plated into sterile Nunclon™ Delta 96-Well MicroWell™ Black Optical Bottom Plates (Thermo Scientific). The wells from the perimeter of the plate were not included in the assay design to avoid edge effects.
On the day of treatment, all antibodies were serially (1:3) diluted in RPMI media (without FBS or supplements added). The 9-point dilution ranged between 45 pM to 300 nM, with the last dilution point containing no mAb. […] While the plated HEK293-LAG3 cells were incubating with the test or control antibodies, non-adherent B-cells (RAJI or A20) were labeled with Calcein AM using the following procedure. RAJI and A20 suspension cells were harvested and centrifuged at 1,200 rpm for 5 minutes. Cell pellets were resuspended in 1×PBS and counted. Cells were washed with RPMI, and resuspended in RPMI at a concentration of 10⁶ cells per 1 ml. Cells were labeled by adding 5 μL of Calcein AM per 1 ml of cell suspension and incubated for 30 min at 37° C., at 5% CO₂. […] Subsequently, 10 μL of BD Pharmingen Fc Block (0.5 mg/mL) was added per 1 ml of the Calcein AM labeled cells, which were incubated at RT for 10 minutes. The Calcein AM-stained, Fc-blocked RAJI or A20 cells were resuspended in RPMI to a final concentration of 3×10⁶ cells per 1 ml and subsequently used in the adherence assay.
The labeled suspension cells were incubated with the HEK293 monolayer for 1 hour at 37° C., at 5% CO₂.

[3] = molecular target: T2, human LAG3 expressed on HEK293 cells; assay: flow cytometry, HEK293/hLAG3 cells
Protocol: The serially diluted antibodies were added to the cell suspension and incubated for 15-30 minutes on ice. The cells were centrifuged and pellets were washed with staining buffer to remove unbound antibodies. […] The cells were centrifuged and pellets were washed with staining buffer to remove unbound secondary F(ab′)2 and fixed overnight with a 1:1 dilution of Cytofix (BD Biosciences, #554655) and staining buffer. Following day, fixed cells were centrifuged and pellets were washed with staining buffer, resuspended and filtered. Fluorescence measurements were acquired on HyperCyt® cytometer and analyzed in ForeCyt™ (IntelliCyt; Albuquerque, N. Mex.) to determine the mean fluorescence intensities (MFI). The EC₅₀ values were calculated from a four-parameter logistic equation over an 11-point response curve using GraphPad Prism. EC₅₀ was defined as the concentration of antibody at which 50% of maximal binding signal is detected. The MFI ratio for each antibody was calculated by dividing the MFI at 100 nM by MFI at 0 nM of antibody concentration.

[4] = molecular target: T2, human LAG3 expressed on HEK293 cells; assay: electrochemiluminescence cell binding
Protocol: To investigate the ability of a panel of anti-LAG3 monoclonal antibodies to bind cell-surface expressed LAG3, an in vitro binding assay utilizing human and monkey LAG3 expressing cell lines in an electrochemiluminescence based detection platform [Meso Scale Diagnostics, Rockville, Md.—(MSD)] was developed.
Experiments were carried out according to following procedure. Cells from the three cell lines described above were rinsed once in 1×PBS buffer without Ca²⁺/Mg²⁺ followed by 10-minute incubation at 37° C. with Enzyme Free Cell Dissociation Solution. […] Approximately 10,000 cells per well in the cell-washing buffer were seeded into the 96-well carbon electrode plates (MULTI-ARRAY high bind plate, MSD) and incubated for 1 hour at 37° C. to allow the cells to adhere. Nonspecific binding sites were blocked by 2% BSA (w/v) in PBS for 1 hour at room temperature. […] The plates were then washed to remove the unbound antibodies using an AquaMax2000 plate washer (MDS Analytical Technologies). The plate-bound antibodies were detected with a SULFO-TAG™-conjugated anti-human IgG antibody (MSD) for 1 hour at room temperature. After washes, the plates were developed with the Read Buffer (MSD) according to manufacturer's recommended procedure and the luminescent signals were recorded with a SECTOR Imager 6000 (MSD) instrument. The direct binding signals (in relative light units—RLU) were analyzed as a function of the antibody concentration and the data were fitted with a sigmoidal (four-parameter logistic) dose-response model using Graph Pad Prism™ software. The potency of each antibody was determined by calculating EC₅₀.

B1: H4sH15482P (antibody, human IgG4 S228P, kappa)
heavy: QVQLVESGGGVVQPGRSLRLSCVASGFTFSSYGMHWVRQAPGKGLEWVAIIWYDGSNKYYADSVKGRFTISRDNSKNTQYLQMNSLRAEDTAVYYCASVATSGDFDYYGMDVWGQGTTVTVSSASTKGPSVFPLAPCSRSTSESTAALGCLVKDYFPEPVTVSWNSGALTSGVHTFPAVLQSSGLYSLSSVVTVPSSSLGTKTYTCNVDHKPSNTKVDKRVESKYGPPCPPCPAPPVAGPSVFLFPPKPKDTLMISRTPEVTCVVVDVSQEDPEVQFNWYVDGVEVHNAKTKPREEQFNSTYRVVSVLTVLHQDWLNGKEYKCKVSNKGLPSSIEKTISKAKGQPREPQVYTLPPSQEEMTKNQVSLTCLVKGFYPSDIAVEWESNGQPENNYKTTPPVLDSDGSFFLYSRLTVDKSRWQEGNVFSCSVMHEALHNHYTQKSLSLSLGK
light: EIVLTQSPATLSLSPGERTTLSCRASQRISTYLAWYQQKPGQAPRLLIYDASKRATGIPARFSGSGSGTGFTLTISSLEPEDFAVYYCQQRSNWPLTFGGGTKVEIKRTVAAPSVFIFPPSDEQLKSGTASVVCLLNNFYPREAKVQWKVDNALQSGNSQESVTEQDSKDSTYSLSSTLTLSKADYEKHKVYACEVTHQGLSSPVTKSFNRGEC
notes: H4sH = modified human IgG4 Fc; also called mAb1
EC50, AP1-Luc signaling, bispecific mode [1]: 0.518 nM
EC50, AP1-Luc signaling, peptide mode [1]: 0.806 nM
IC50 [2]: 3.8 nM
EC50 [3]: 1.11 nM

B2: H4H15482P (antibody, human IgG4 S228P, kappa)
heavy: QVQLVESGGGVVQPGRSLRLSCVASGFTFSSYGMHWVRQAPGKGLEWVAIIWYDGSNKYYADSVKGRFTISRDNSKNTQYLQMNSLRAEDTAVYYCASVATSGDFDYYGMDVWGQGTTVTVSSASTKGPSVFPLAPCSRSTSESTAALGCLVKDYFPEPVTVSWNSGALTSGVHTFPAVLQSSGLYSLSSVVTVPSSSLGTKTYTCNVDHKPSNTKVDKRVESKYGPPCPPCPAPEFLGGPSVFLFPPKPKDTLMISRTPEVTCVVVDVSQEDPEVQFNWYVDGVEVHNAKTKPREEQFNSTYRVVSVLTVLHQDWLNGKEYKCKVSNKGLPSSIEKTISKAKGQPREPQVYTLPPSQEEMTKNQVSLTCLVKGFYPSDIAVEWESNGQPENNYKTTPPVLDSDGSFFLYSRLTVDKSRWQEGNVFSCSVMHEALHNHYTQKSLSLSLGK
light: EIVLTQSPATLSLSPGERTTLSCRASQRISTYLAWYQQKPGQAPRLLIYDASKRATGIPARFSGSGSGTGFTLTISSLEPEDFAVYYCQQRSNWPLTFGGGTKVEIKRTVAAPSVFIFPPSDEQLKSGTASVVCLLNNFYPREAKVQWKVDNALQSGNSQESVTEQDSKDSTYSLSSTLTLSKADYEKHKVYACEVTHQGLSSPVTKSFNRGEC
notes: H4H = human IgG4 Fc with S108P
EC50, AP1-Luc signaling, bispecific mode [1]: > 100 nM
EC50, AP1-Luc signaling, peptide mode [1]: 2.48 nM
IC50 [2]: 11 nM
EC50 [3]: 1.91 nM

B3: H4sH14813N (antibody, human IgG4 S228P, kappa, V domains shown)
VH: QVQLQQWGAGLLKPSETLSLTCAVYGGSFSGYYWNWIRQPPGKGLEWVGEISHRGSTNYNPSLKSRVTISLDTSKNQFSLKLTSVTAADTAVYYCSRDEELEFRFFDYWGQGTLVTVSS
VL: EIVLTQSPATLSLSPGERATLSCRASQSVSSYLAWYQQKPGQAPRLLVYGASNRATGIPARFSGSGSGTDFTLTISSLEPEDFAFYYCQQRSNWPLTFGGGTKVEIKR
notes: H4sH = modified human IgG4 Fc
EC50, AP1-Luc signaling, bispecific mode [1]: 0.688 nM
EC50, AP1-Luc signaling, peptide mode [1]: 0.816 nM
Ratio of 100 nM antibody binding HEK293-hLAG3 to HEK293 cells [4]: 19.8
IC50 [2]: 10 nM
EC50 [3]: 1.18 nM
Ratio of MFI (100 nM/0 nM) [3]: 197

B4: H4sH15498P2 (antibody, V domains shown)
VH: EVQLVESGGGLVQPGGSLRLSCAASGFTFTSYAMTWVRQAPGKGLEWVSDISGSGGRTYYADSVKGRFTISRDNSKNMLYLQMNILRAEDTAVYHCAKGTGQQVDLYNYYYALDVWGQGTTVTVSS
VL: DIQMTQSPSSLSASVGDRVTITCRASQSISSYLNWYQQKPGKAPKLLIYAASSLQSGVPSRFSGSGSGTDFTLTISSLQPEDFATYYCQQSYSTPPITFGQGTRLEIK
notes: H4sH = human IgG4 Fc with 2 or more amino acid changes as disclosed in US20140243504
EC50, AP1-Luc signaling, bispecific mode [1]: > 100 nM
EC50, AP1-Luc signaling, peptide mode [1]: 4.61 nM
Ratio of 100 nM antibody binding HEK293-hLAG3 to HEK293 cells [4]: 99.8
IC50 [2]: 21 nM
EC50 [3]: 7.92 nM
Ratio of MFI (100 nM/0 nM) [3]: 401

B5: H4H15498P2 (antibody, human IgG4, V domains shown)
VH: EVQLVESGGGLVQPGGSLRLSCAASGFTFTSYAMTWVRQAPGKGLEWVSDISGSGGRTYYADSVKGRFTISRDNSKNMLYLQMNILRAEDTAVYHCAKGTGQQVDLYNYYYALDVWGQGTTVTVSS
VL: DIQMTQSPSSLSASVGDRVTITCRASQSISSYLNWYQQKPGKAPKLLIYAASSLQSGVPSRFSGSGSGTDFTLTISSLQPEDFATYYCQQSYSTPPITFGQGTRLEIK
notes: H4H = human IgG4 Fc with S108P hinge mutation
EC50, AP1-Luc signaling, bispecific mode [1]: 6.62 nM
EC50, AP1-Luc signaling, peptide mode [1]: 5.89 nM
Ratio of 100 nM antibody binding HEK293-hLAG3 to HEK293 cells [4]: 38.8
IC50 [2]: 30 nM
EC50 [3]: 5.76 nM
Ratio of MFI (100 nM/0 nM) [3]: 305

B6: H4H15479P (antibody, human IgG4, V domains shown)
VH: QVQLQQWGAGLLNPSETLSLTCAVYGGAFSDYYWNWIRQPPGKGLEWIGEINHRGSTNYNPSLKSRVTISVDTSKNQFSLRMSSVTAADAAVYYCARGEDYDIWNGYYQEKWGQGTLVTVSS
VL: EIVLTQSPATLSLSPGERATLSCRASQSISTYLAWYQQKPGQAPRLLIYDASKRATGIPARFSGSGSGTDFTLTISSLEPEDFVVYYCHQRSNWPLTFGGGTKVEIK
EC50, AP1-Luc signaling, bispecific mode [1]: 0.145 nM
EC50, AP1-Luc signaling, peptide mode [1]: 0.284 nM
Ratio of 100 nM antibody binding HEK293-hLAG3 to HEK293 cells [4]: 20.1
IC50 [2]: 11 nM
EC50 [3]: 0.752 nM
Ratio of MFI (100 nM/0 nM) [3]: 203

B7: H4H15483P (antibody, human IgG4, V domains shown)
VH: QVQLQQWGAGLLPPSETLSLICAVYGGSFSGYYWSWIRQPPGKGLEWIGEINHRGSTNYNPSLKSRATISVDTSKNQFSLKLSSVTAADTAVYYCSRGEDYYDSSGYSYYFDYWGQGTLVTVSS
VL: EIVLTQSPATLSLSPGERATLSCRASQSVSSYLAWYQQKPGQAPRLLIYDASNRATGIPARFSGSGSGTDFTLTISSLEPEDFAVYYCQQRSNWPLTFGGGTKVEIK
notes: as for B5
EC50, AP1-Luc signaling, bispecific mode [1]: 3.69 nM
EC50, AP1-Luc signaling, peptide mode [1]: 2.54 nM
Ratio of 100 nM antibody binding HEK293-hLAG3 to HEK293 cells [4]: 6.6
IC50 [2]: 16 nM
EC50 [3]: 2.31 nM
Ratio of MFI (100 nM/0 nM) [3]: 206

B8: H4H14813N (antibody, human IgG4, V domains shown)
VH: QVQLQQWGAGLLKPSETLSLTCAVYGGSFSGYYWNWIRQPPGKGLEWVGEISHRGSTNYNPSLKSRVTISLDTSKNQFSLKLTSVTAADTAVYYCSRDEELEFRFFDYWGQGTLVTVSS
VL: EIVLTQSPATLSLSPGERATLSCRASQSVSSYLAWYQQKPGQAPRLLVYGASNRATGIPARFSGSGSGTDFTLTISSLEPEDFAFYYCQQRSNWPLTFGGGTKVEIK
notes: as for B5
EC50, AP1-Luc signaling, bispecific mode [1]: 1.07 nM
EC50, AP1-Luc signaling, peptide mode [1]: 1.01 nM
Ratio of 100 nM antibody binding HEK293-hLAG3 to HEK293 cells [4]: 8.9
IC50 [2]: 10 nM
EC50 [3]: 1.44 nM
Ratio of MFI (100 nM/0 nM) [3]: 208
